{"source": "patent US20110105407A1", "target": "proMMP-9 (UniProt P14780)", "sequence (P14780 20-707 limits assumed)": "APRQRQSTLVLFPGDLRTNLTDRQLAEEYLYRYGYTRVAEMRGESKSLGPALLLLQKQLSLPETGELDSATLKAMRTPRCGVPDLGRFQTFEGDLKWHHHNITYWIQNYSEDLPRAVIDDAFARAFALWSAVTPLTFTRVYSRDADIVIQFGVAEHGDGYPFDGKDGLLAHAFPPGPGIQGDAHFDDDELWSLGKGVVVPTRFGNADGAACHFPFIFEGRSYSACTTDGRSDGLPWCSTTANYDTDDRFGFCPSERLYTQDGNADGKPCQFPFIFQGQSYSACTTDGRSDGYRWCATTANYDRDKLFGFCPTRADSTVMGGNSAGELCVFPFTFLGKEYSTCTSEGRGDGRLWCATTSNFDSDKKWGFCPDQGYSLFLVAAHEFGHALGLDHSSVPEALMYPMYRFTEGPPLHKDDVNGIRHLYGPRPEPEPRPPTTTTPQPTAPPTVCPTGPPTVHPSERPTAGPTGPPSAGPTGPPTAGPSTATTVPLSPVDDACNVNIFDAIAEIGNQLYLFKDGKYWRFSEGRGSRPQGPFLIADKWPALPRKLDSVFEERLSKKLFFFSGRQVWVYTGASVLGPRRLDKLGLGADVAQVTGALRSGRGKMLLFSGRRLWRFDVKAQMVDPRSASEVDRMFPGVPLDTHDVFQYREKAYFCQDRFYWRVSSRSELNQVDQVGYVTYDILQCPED", "assay": "cell-based or functional assay"}
{"substance": "TIMP-1-GPI (from UniProt P01033 24-207; P19256 202-237)", "values": [{"measurement": "release of proMMP-9 from RCC-53 into the medium (gelatinase zymography); concentration from which a decrease was seen", "value": 10, "unit": "ng/mL"}]}
